Assay results: patent US20230395193A1 (priority 2020, published 2023)

System: SARS-CoV-1, MERS-CoV and SARS-CoV-2 proteins in HEK293T cells
Design: species or system human

B1: M-Q9UKV5 (protein, UniProt Q9UKV5 1-643, looked up)
E3 ubiquitin-protein ligase …: MPLLFLERFPWPSLRTYTGLSGLALLGTIISAYRALSQPEAGPGEPDQLTASLQPEPPAPARPSAGGPRARDVAQYLLSDSLFVWVLVNTACCVLMLVAKLIQCIVFGPLRVSERQHLKDKFWNFIFYKFIFIFGVLNVQTVEEVVMWCLWFAGLVFLHLMVQLCKDRFEYLSFSPTTPMSSHGRVLSLLVAMLLSCCGLAAVCSITGYTHGMHTLAFMAAESLLVTVRTAHVILRYVIHLWDLNHEGTWEGKGTYVYYTDFVMELTLLSLDLMHHIHMLLFGNIWLSMASLVIFMQLRYLFHEVQRRIRRHKNYLRVVGNMEARFAVATPEELAVNNDDCAICWDSMQAARKLPCGHLFHNSCLRSWLEQDTSCPTCRMSLNIADNNRVREEHQGENLDENLVPVAAAEGRPRLNQHNHFFHFDGSRIASWLPSFSVEVMHTTNILGITQASNSQLNAMAHQIQEMFPQVPYHLVLQDLQLTRSVEITTDNILEGRIQVPFPTQRSDSIRPALNSPVERPSSDQEEGETSAQTERVPLDLSPRLEETLDFGEVEVEPSEVEDFEARGSRFSKSADERQRMLVQRKDELLQQARKRFLNKSSEDDAASESFLPSEGASSDPVTLRRRMLAAAAERRLQKQQTS
MIST_MERS: 0.2719 | MIST_SARS1: 0.9871 | MIST_SARS2: 0.04352 | Saint_MERS: 0 | Saint_SARS1: 1 | Saint_SARS2: 1

B2: M-Q9ULX6 (protein, UniProt Q9ULX6 1-646, looked up)
A-kinase anchor protein 8-like: MSYTGFVQGSETTLQSTYSDTSAQPTCDYGYGTWNSGTNRGYEGYGYGYGYGQDNTTNYGYGMATSHSWEMPSSDTNANTSASGSASADSVLSRINQRLDMVPHLETDMMQGGVYGSGGERYDSYESCDSRAVLSERDLYRSGYDYSELDPEMEMAYEGQYDAYRDQFRMRGNDTFGPRAQGWARDARSGRPMASGYGRMWEDPMGARGQCMSGASRLPSLFSQNIIPEYGMFQGMRGGGAFPGGSRFGFGFGNGMKQMRRTWKTWTTADFRTKKKKRKQGGSPDEPDSKATRTDCSDNSDSDNDEGTEGEATEGLEGTEAVEKGSRVDGEDEEGKEDGREEGKEDPEKGALTTQDENGQTKRKLQAGKKSQDKQKKRQRDRMVERIQFVCSLCKYRTFYEDEMASHLDSKFHKEHFKYVGTKLPKQTADFLQEYVTNKTKKTEELRKTVEDLDGLIQQIYRDQDLTQEIAMEHFVKKVEAAHCAACDLFIPMQFGIIQKHLKTMDHNRNRRLMMEQSKKSSLMVARSILNNKLISKKLERYLKGENPFTDSPEEEKEQEEAEGGALDEGAQGEAAGISEGAEGVPAQPPVPPEPAPGAVSPPPPPPPEEEEEGAVPLLGGALQRQIRGIPGLDVEDDEEGGGGAP
MIST_MERS: 0 | MIST_SARS1: 0.34 | MIST_SARS2: 0.752 | Saint_MERS: 0 | Saint_SARS1: 0.98 | Saint_SARS2: 1

B3: E-Q6DD88 (protein, UniProt Q6DD88 1-541, looked up)
Atlastin-3: MLSPQRVAAAASRGADDAMESSKPGPVQVVLVQKDQHSFELDEKALASILLQDHIRDLDVVVVSVAGAFRKGKSFILDFMLRYLYSQKESGHSNWLGDPEEPLTGFSWRGGSDPETTGIQIWSEVFTVEKPGGKKVAVVLMDTQGAFDSQSTVKDCATIFALSTMTSSVQIYNLSQNIQEDDLQQLQLFTEYGRLAMDEIFQKPFQTLMFLVRDWSFPYEYSYGLQGGMAFLDKRLQVKEHQHEEIQNVRNHIHSCFSDVTCFLLPHPGLQVATSPDFDGKLKDIAGEFKEQLQALIPYVLNPSKLMEKEINGSKVTCRGLLEYFKAYIKIYQGEDLPHPKSMLQATAEANNLAAAASAKDIYYNNMEEVCGGEKPYLSPDILEEKHCEFKQLALDHFKKTKKMGGKDFSFRYQQELEEEIKELYENFCKHNGSKNVFSTFRTPAVLFTGIVALYIASGLTGFIGLEVVAQLFNCMVGLLLIALLTWGYIRYSGQYRELGGAIDFGAAYVLEQASSHIGNSTQATVRDAVVGRPSMDKKAQ
modifications: interactor of SARS-CoV-2 E
MIST_MERS: 0.9832 | MIST_SARS1: 0 | MIST_SARS2: 0 | Saint_MERS: 1 | Saint_SARS1: 0 | Saint_SARS2: 0

B4: M-Q9ULF5 (protein, UniProt Q9ULF5 26-831, looked up)
Zinc transporter ZIP10: HEEHDHGPEALHRQHRGMTELEPSKFSKQAAENEKKYYIEKLFERYGENGRLSFFGLEKLLTNLGLGERKVVEINHEDLGHDHVSHLDILAVQEGKHFHSHNHQHSHNHLNSENQTVTSVSTKRNHKCDPEKETVEVSVKSDDKHMHDHNHRLRHHHRLHHHLDHNNTHHFHNDSITPSERGEPSNEPSTETNKTQEQSDVKLPKGKRKKKGRKSNENSEVITPGFPPNHDQGEQYEHNRVHKPDRVHNPGHSHVHLPERNGHDPGRGHQDLDPDNEGELRHTRKREAPHVKNNAIISLRKDLNEDDHHHECLNVTQLLKYYGHGANSPISTDLFTYLCPALLYQIDSRLCIEHFDKLLVEDINKDKNLVPEDEANIGASAWICGIISITVISLLSLLGVILVPIINQGCFKFLLTFLVALAVGTMSGDALLHLLPHSQGGHDHSHQHAHGHGHSHGHESNKFLEEYDAVLKGLVALGGIYLLFIIEHCIRMFKHYKQQRGKQKWFMKQNTEESTIGRKLSDHKLNNTPDSDWLQLKPLAGTDDSVVSEDRLNETELTDLEGQQESPPKNYLCIEEEKIIDHSHSDGLHTIHEHDLHAAAHNHHGENKTVLRKHNHQWHHKHSHHSHGPCHSGSDLKETGIANIAWMVIMGDGIHNFSDGLAIGAAFSAGLTGGISTSIAVFCHELPHELGDFAVLLKAGMTVKQAIVYNLLSAMMAYIGMLIGTAVGQYANNITLWIFAVTAGMFLYVALVDMLPEMLHGDGDNEEHGFCPVGQFILQNLGLLFGFAIMLVIALYEDKIVFDIQF
MIST_MERS: 0 | MIST_SARS1: 0.7375 | MIST_SARS2: 0 | Saint_MERS: 0 | Saint_SARS1: 1 | Saint_SARS2: 0

B5: M-Q9UI26 (protein, UniProt Q9UI26 1-975, looked up)
Importin-11: MDLNSASTVVLQVLTQATSQDTAVLKPAEEQLKQWETQPGFYSVLLNIFTNHTLDINVRWLAVLYFKHGIDRYWRRVAPHALSEEEKTTLRAGLITNFNEPINQIATQIAVLIAKVARLDCPRQWPELIPTLIESVKVQDDLRQHRALLTFYHVTKTLASKRLAADRKLFYDLASGIYNFACSLWNHHTDTFLQEVSSGNEAAILSSLERTLLSLKVLRKLTVNGFVEPHKNMEVMGFLHGIFERLKQFLECSRSIGTDNVCRDRLEKTIILFTKVLLDFLDQHPFSFTPLIQRSLEFSVSYVFTEVGEGVTFERFIVQCMNLIKMIVKNYAYKPSKNFEDSSPETLEAHKIKMAFFTYPTLTEICRRLVSHYFLLTEEELTMWEEDPEGFTVEETGGDSWKYSLRPCTEVLFIDIFHEYNQTLTPVLLEMMQTLQGPTNVEDMNALLIKDAVYNAVGLAAYELFDSVDFDQWFKNQLLPELQVIHNRYKPLRRRVIWLIGQWISVKFKSDLRPMLYEAICNLLQDQDLVVRIETATTLKLTVDDFEFRTDQFLPYLETMFTLLFQLLQQVTECDTKMHVLHVLSCVIERVNMQIRPYVGCLVQYLPLLWKQSEEHNMLRCAILTTLIHLVQGLGADSKNLYPFLLPVIQLSTDVSQPPHVYLLEDGLELWLVTLENSPCITPELLRIFQNMSPLLELSSENLRTCFKIINGYIFLSSTEFLQTYAVGLCQSFCELLKEITTEGQVQVLKVVENALKVNPILGPQMFQPILPYVFKGIIEGERYPVVMSTYLGVMGRVLLQNTSFFSSLLNEMAHKFNQEMDQLLGNMIEMWVDRMDNITQPERRKLSALALLSLLPSDNSVIQDKFCGIINISVEGLHDVMTEDPETGTYKDCMLMSHLEEPKVTEDEEPPTEQDKRKKMLALKDPVHTVSLQQFIYEKLKAQQEMLGEQGFQSLMETVDTEIVTQLQEFLQGF
modifications: interactor of M protein
MIST_MERS: 0.9937 | MIST_SARS1: 0.6822 | MIST_SARS2: 0.6494 | Saint_MERS: 0.99 | Saint_SARS1: 1 | Saint_SARS2: 1
